Experimental data as given in patent US20140303084.
Positions count from the first letter of the chain named.

Legend:
[1] = system: T1, KLTCAASYCWLF
T1 sequence: KLTCAASYCWLF

[2] = system: T2, k-MeLeu-TCLASFCWLF
T2 sequence: KLTCLASFCWLF

[3] = system: T3, RRAPGKLTCLA-MeSer-YCWLFWTGIA
T3 sequence: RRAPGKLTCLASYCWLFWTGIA

[4] = system: T4, rRAPGKLTCLASYCWLFSTGIA
T4 sequence: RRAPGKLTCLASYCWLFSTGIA

[5] = system: T5, C(N-PEG5kmaleimide)-PEG4-LVPR-PEG4-rRAPGKLTCLASYCWLFWTGIA
T5 sequence: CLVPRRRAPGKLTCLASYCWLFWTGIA

[6] = system: T6, WVPQWKVTCLASCSRLFHGFDA
T6 sequence: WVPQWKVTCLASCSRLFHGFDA

[7] = system: T7, KLTCLASYCW-Nle-F
T7 sequence: KLTCLASYCWXF

[8] = system: T8, RAAPGKLQCLASYCWLFWTGIA
T8 sequence: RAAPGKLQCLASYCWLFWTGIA

[9] = system: T9, rRAAGKLTCLASACWLFATGIA
T9 sequence: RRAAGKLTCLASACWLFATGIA

[10] = system: T10, KLTCLASYCWLFK
T10 sequence: KLTCLASYCWLFK

[11] = system: T11, C(PEG5k)GGG-RRAPGKLT-Asp-LASY-Lys-WLFWTGIA
T11 sequence: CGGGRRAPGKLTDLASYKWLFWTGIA

[12] = system: T12, SKQGRPISPArRAAGKLTCLASYCWLFWTGIA
T12 sequence: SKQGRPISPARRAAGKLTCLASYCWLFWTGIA

[13] = system: T13, RRAPGKLQCLASYCWLFWTGIK
T13 sequence: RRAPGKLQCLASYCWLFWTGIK

[14] = system: T14, RRAPGKLT-Lys-LASY-Glu-WLFWTGIA-COOH
T14 sequence: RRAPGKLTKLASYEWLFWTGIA

[15] = system: T15, SKQGRPISSDrRAAGKSTCLASYCWLFWTGIA
T15 sequence: T12 sequence with P9S, A10D, L17S

[16] = system: T16, PRIRTVGPGSRSASGKLTCLASYCWLFWSGIA
T16 sequence: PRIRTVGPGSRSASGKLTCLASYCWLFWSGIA

[17] = system: T17, RRAPGKLT-Dab-LASY-Asp-WLFWTGIA-COOH
T17 sequence: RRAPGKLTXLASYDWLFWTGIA

[18] = system: T18, RRAPGKLT-Asp-LASY-Dab-WLFWTGIA-CONH2
T18 sequence: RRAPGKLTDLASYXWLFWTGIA

[19] = system: T19, RRAPGKLT-Asp-LASY-Orn-WLFWTGIA-CONH2
T19 sequence: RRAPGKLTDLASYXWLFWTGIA

[20] = system: T20, RQLWNKLTCLASYCALIGLSGT
T20 sequence: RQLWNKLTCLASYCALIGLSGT

[21] = system: T21, Ac-KLTCLASYCWLF
T21 sequence: KLTCLASYCWLF

[22] = system: T22, CRRAPGKLQCLASYCWLFWTGIAC
T22 sequence: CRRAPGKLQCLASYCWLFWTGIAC

[23] = system: T23, RRAPGKLQCLASYCWLFWTAIA
T23 sequence: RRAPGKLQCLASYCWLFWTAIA

[24] = system: T24, KLT-Lys-LASY-Glu-WLF
T24 sequence: KLTKLASYEWLF

[25] = system: T25, RRAPGKLT-Lys-LASY-Asp-WLFWTGIA-COOH
T25 sequence: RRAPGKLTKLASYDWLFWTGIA

[26] = system: T26, RRAPGKLT-Asp-LASY-Dap-WLFWTGIA-COOH
T26 sequence: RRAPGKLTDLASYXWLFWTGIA

[27] = system: T27, SKQGRPISPDrRAAGKLTCLASYCWLFWTGIA-PEG4-C(N-PEG5k maleimide)
T27 sequence: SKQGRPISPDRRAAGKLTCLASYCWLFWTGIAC

[28] = system: T28, RRAPGKLTCLASYCWLF WAGFA ASTLAPAHHQ
T28 sequence: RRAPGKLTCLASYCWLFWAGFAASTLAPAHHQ

[29] = system: T29, compound 23
T29 sequence: T16 sequence with S29T

[30] = system: T30, RRAPGK(PEG2-Biotin)LTCLASYCWLFWTGIA
T30 sequence: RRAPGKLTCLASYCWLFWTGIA

[31] = system: T31, RYQRARLTCLASYCGLLFSMSA
T31 sequence: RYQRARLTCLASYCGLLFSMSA

[32] = system: T32, compound 10
T32 sequence: KLTCLASYCWLFWTGIA

[33] = system: T33, PRIRTVGPGSRSASGKLTCLASYCWLFWTLIA
T33 sequence: T16 sequence with S29T, G30L

[34] = system: T34, GDSGRKLSCLGSYCWLSVQFMA
T34 sequence: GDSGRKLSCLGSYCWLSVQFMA

[35] = system: T35, compound 6
T35 sequence: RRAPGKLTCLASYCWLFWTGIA

[36] = system: T36, RRAPGKLQCLASYCWLFWTKIA
T36 sequence: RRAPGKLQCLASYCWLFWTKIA

[37] = system: T37, SKQGAPISPDrRAAGKLTCLASYCWLFWTGIA
T37 sequence: T12 sequence with R5A, A10D

[38] = system: T38, RRAPGKLQCLASYCWLFKTGIA
T38 sequence: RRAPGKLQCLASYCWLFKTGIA

[39] = system: T39, RRAPGKLT-Lys-LASY-Asp-WLFWTGIA-CONH2
T39 sequence: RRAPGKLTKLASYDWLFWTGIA

[40] = system: T40, KLT-Glu-LASY-Dab-WLF
T40 sequence: KLTELASYXWLF

[41] = system: T41, RRAPGKLT-Dap-LASY-Asp-WLFWTGIA-COOH
T41 sequence: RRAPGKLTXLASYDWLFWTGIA

[42] = system: T42, RRAPGKCTALASYAWCFWTGIA-COOH
T42 sequence: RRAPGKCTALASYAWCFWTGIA

[43] = system: T43, RRAPGKLQCLASYCWLFWTGIAAAAGAP
T43 sequence: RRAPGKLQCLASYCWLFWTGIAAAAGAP

[44] = system: T44, RRAPGKLTCLASYCWLfWTGIA
T44 sequence: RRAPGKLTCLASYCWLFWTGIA

[45] = system: T45, SKQGRPISSDrRASGKLTCLASYCWLFWTGIA
T45 sequence: T12 sequence with P9S, A10D, A14S

[46] = system: T46, RRAPGKLTCLASYCWLFWT-Sar-IA
T46 sequence: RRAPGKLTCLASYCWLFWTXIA

[47] = system: T47, KLTALASYCWLF
T47 sequence: KLTALASYCWLF

[48] = system: T48, RRAPGKLTCLASYCWL-MePhe-WTGIA
T48 sequence: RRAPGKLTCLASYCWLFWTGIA

[49] = system: T49, KLLKLLLKLLLKLLK-k-MeLeu-TCLASYCWLF
T49 sequence: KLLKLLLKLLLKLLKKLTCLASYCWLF

[50] = system: T50, MAGMLKLTCFASYCGLFPLVSS
T50 sequence: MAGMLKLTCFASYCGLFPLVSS

[51] = system: T51, KLTALASYAWLF
T51 sequence: KLTALASYAWLF

Substance: human Factor IXa
- Vmax, FXa generation assay; (++) means 1-2 [1]: (++)
- Vmax, FXa generation assay [2]: > 2
- Vmax, FXa generation assay; (++) means 1-2 [3]: (++)
- Vmax, FXa generation assay; (++) means 1-2 [4]: (++)
- Vmax, FXa generation assay; (++) means 1-2 [5]: (++)
- Vmax, FXa generation assay [6]: > 1.5
- Vmax, FXa generation assay [7]: > 2
- Vmax, FXa generation assay [8]: > 2
- Vmax, FXa generation assay; (++) means 1-2 [9]: (++)
- Vmax, FXa generation assay [10]: > 3
- Vmax, FXa generation assay; (++) means 1-2 [11]: (++)
- Vmax, FXa generation assay [12]: > 3
- Vmax, FXa generation assay; (++) means 1-2 [13]: (++)
- Vmax, FXa generation assay; (++) means 1-2 [14]: (++)
- Vmax, FXa generation assay [15]: > 3
- Vmax, FXa generation assay [16]: > 3
- Vmax, FXa generation assay; (++) means 1-2 [17]: (++)
- Vmax, FXa generation assay; (++) means 1-2 [18]: (++)
- Vmax, FXa generation assay [19]: > 2
- Vmax, FXa generation assay; (++) means 1-2 [20]: (++)
- Vmax, FXa generation assay; (++) means 1-2 [21]: (++)
- Vmax, FXa generation assay [22]: > 2
- Vmax, FXa generation assay [23]: > 2
- Vmax, FXa generation assay; (++) means 1-2 [24]: (++)
- Vmax, FXa generation assay [25]: > 0.5
- Vmax, FXa generation assay; (++) means 1-2 [26]: (++)
- Vmax, FXa generation assay [27]: > 0.5
- Vmax, FXa generation assay [28]: > 2
- Vmax, FXa generation assay with hFIXa [29]: > 3
- Vmax, FXa generation assay; (++) means 1-2 [30]: (++)
- Vmax, FXa generation assay [31]: > 0.5
- Vmax, FXa generation assay with hFIXa; (++) means 1-2 [32]: (++)
- Vmax, FXa generation assay [33]: > 3
- Vmax, FXa generation assay; (++) means 1-2 [34]: (++)
- Vmax, FXa generation assay with hFIXa [35]: > 2
- Vmax, FXa generation assay; (++) means 1-2 [36]: (++)
- Vmax, FXa generation assay [37]: > 3
- Vmax, FXa generation assay [38]: > 0.2
- Vmax, FXa generation assay; (++) means 1-2 [39]: (++)
- Vmax, FXa generation assay; (++) means 1-2 [40]: (++)
- Vmax, FXa generation assay [41]: > 0.8
- Vmax, FXa generation assay [42]: > 2
- Vmax, FXa generation assay; (++) means 1-2 [43]: (++)
- Vmax, FXa generation assay; (++) means 1-2 [44]: (++)
- Vmax, FXa generation assay [45]: > 3
- Vmax, FXa generation assay [46]: > 3
- Vmax, FXa generation assay; (++) means 1-2 [47]: (++)
- Vmax, FXa generation assay [48]: > 2
- Vmax, FXa generation assay [49]: > 2
- Vmax, FXa generation assay; (++) means 1-2 [50]: (++)
- Vmax, FXa generation assay [51]: > 2
